In patent US20260166128A1, “HUMAN AMYLIN ANALOG, AND DERIVATIVE THEREOF AND USE THEREOF” (priority 2022, published 2026) one finds Dissolution property, Freeze storage property and Freeze storage yield data, which are given here for 13 molecules.

The nature of this data set: Freeze-thaw stability of derivatives (freeze-thaw yield by liquid chromatography). The conditions noted are these: for Dissolution property: appearance after dissolution at 0.2 mg/ml in 20 mM phosphate buffer solution (PB) (pH 7.0); for Freeze storage property: appearance after overnight storage at −20° C. and thawing to room temperature, 0.2 mg/ml in 20 mM PB (pH 7.0); for Freeze storage yield: concentration of polypeptide after freezing and thawing / concentration before, by liquid chromatography, −20° C. overnight. It counts as physicochemical. On the procedure: The freeze-dried powder of the polypeptide analog derivative prepared in Example 1 was mixed with a buffer solution according to a mass-volume ratio of 0.2 mg/ml, the polypeptide was dissolved with 20 mM phosphate buffer solution (PB) (pH 7.0), the sample was stored at −20° C. for overnight storage, and then the sample was taken out to be restored to room temperature for thawing. During the experiment, property changes of the polypeptide after dissolution and freezing and thawing were observed and recorded respectively, and concentrations of the polypeptide before and after the freezing and thawing were detected by the following liquid chromatography method: Materials and equipment: high-performance liquid chromatographic instrument (Agilent 1200), ultrapure water (18.2 MΩ self-manufactured ultrapure water), acetonitrile (HPLC grade), and trifluoroacetic acid (HPLC grade); and reversed-phase chromatographic column: […] A sample to be tested was centrifuged at 10,000 rpm and 4° C. for 3 minutes, and a supernatant was taken and added into a liquid-phase sample injection bottle. […] A freeze-thaw yield was calculated by the following formula: freeze-thaw yield=concentration of polypeptide after the freezing and thawing/concentration of polypeptide before the freezing and thawing.

Numbered stars: 1 amine (or outer) side, 2 acyl side, 3 side chain; on linkers, the order of the positions; unused ones are H or OH. Bridge positions count the residues as written; N and C are the ends. Square brackets hold non-standard residues; d marks the D form. Primed or numbered codes have the meaning given here. Side chains are listed from the residue outwards. Peptide text beside a SMILES is read from it. * marks the point of attachment. C20 diacid = O=C(O)CCCCCCCCCCCCCCCCCCC(=O)*; C18 diacid = O=C(O)CCCCCCCCCCCCCCCCC(=O)*; X1 = N[C@@H]1CCN([*:1])[C@@H]1C(=O)[*:2]; C16 diacid = O=C(O)CCCCCCCCCCCCCCC(=O)*; γGlu = O=C(O)[C@H](CCC(=O)[*:2])N[*:1]; C14 diacid = O=C(O)CCCCCCCCCCCCC(=O)*; C12 diacid = O=C(O)CCCCCCCCCCC(=O)*; HOOC(CH2)8CO = O=C(O)CCCCCCCCC(=O)*; Trx′ = not defined here

In the case of “PD137: KCNTATCATQRLADFLRHSSNNLGPILPPTNVGSNT-trans-Hyp-NH2; N-terminal, 1K-ϵ; γGlu + C14 diacid ({C14 diacid-γGlu}-K([γGlu-C14 diacid])CNTATCATQRLADFLRHSSNNLGPILPPTNVGSNT-{trans‑Hyp-NH2}; disulfide 2-7 (inferred))”, the Dissolution property result is listed as “Clear”, the Freeze storage property entry is given as “Clear” and the Freeze storage yield turned out to be 102.20%.

As for “PD135: KCNTATCATQRLADFLRHSSNNLGPILPPTNVGSNT-trans-Hyp-NH2; N-terminal, 1K-ϵ; γGlu + C10 diacid ({HOOC(CH2)8CO-γGlu}-K([γGlu-HOOC(CH2)8CO])CNTATCATQRLADFLRHSSNNLGPILPPTNVGSNT-{trans‑Hyp-NH2}; disulfide 2-7 (inferred))”, the Dissolution property entry was “Clear”, the Freeze storage property result is “Clear” and the Freeze storage yield is recorded as 110.57%.

Regarding “PD136: KCNTATCATQRLADFLRHSSNNLGPILPPTNVGSNT-trans-Hyp-NH2; N-terminal, 1K-ϵ; γGlu + C12 diacid ({C12 diacid-γGlu}-K([γGlu-C12 diacid])CNTATCATQRLADFLRHSSNNLGPILPPTNVGSNT-{trans‑Hyp-NH2}; disulfide 2-7 (inferred))”, the Dissolution property result was “Clear”, the Freeze storage property entry is on record as “Clear” and the Freeze storage yield turned out to be 108.07%.

With “PD150: KCNTATCATQRLADFLRHSSNNLKPILPPTNVGSNT-trans-Hyp-NH2; N-terminal, 1K-ϵ; γGlu + C14 diacid ({C14 diacid-γGlu}-K([γGlu-C14 diacid])CNTATCATQRLADFLRHSSNNLKPILPPTNVGSNT-{trans‑Hyp-NH2}; disulfide 2-7 (inferred))”, the Dissolution property entry is listed as “Clear”, the Freeze storage property entry is “Clear” and the Freeze storage yield was 103.74%.

“PD133: KCNTATCATQRLADFLRHSSNNLGPILPPTNVGSNT-trans-Hyp-NH2; N-terminal; Trx + C20 diacid ({C20 diacid-Trx′}-KCNTATCATQRLADFLRHSSNNLGPILPPTNVGSNT-{trans‑Hyp-NH2}; disulfide 2-7 (inferred); reading uncertain; also: printed as KCNTATCATQRLADFLRHSSNNLGPILPPTNVGSNT-trans-Hyp-NH2)”: the Dissolution property result is recorded as “Clear”, the Freeze storage property entry was “Clear” and the Freeze storage yield was determined as 98.24%.

Consider “PD139: KCNTATCATQRLADFLRHSSNNLGPILPPTNVGSNT-trans-Hyp-NH2; N-terminal, 1K-ϵ; γGlu + C18 diacid ({C18 diacid-γGlu}-K([γGlu-C18 diacid])CNTATCATQRLADFLRHSSNNLGPILPPTNVGSNT-{trans‑Hyp-NH2}; disulfide 2-7 (inferred))”, for which the Dissolution property result is “Clear”, the Freeze storage property entry is “Clear” and the Freeze storage yield is recorded as 104.78%.

As for `CC[C@H](C)[C@H](NC(=O)[C@@H]1CCCN1C(=O)[C@H](CCCCNC(=O)CC[C@H](NC(=O)CCCCCCCCCCCCCCCCCCC(=O)O)C(=O)O)NC(=O)[C@H](CC(C)C)NC(=O)[C@H](CC(N)=O)NC(=O)[C@H](CC(N)=O)NC(=O)[C@H](CO)NC(=O)[C@H](CO)NC(=O)[C@H](Cc1c[nH]cn1)NC(=O)[C@H](CCCNC(=N)N)NC(=O)[C@H](CC(C)C)NC(=O)[C@H](Cc1ccccc1)NC(=O)[C@H](CC(=O)O)NC(=O)[C@H](C)NC(=O)[C@H](CC(C)C)NC(=O)[C@H](CCCNC(=N)N)NC(=O)[C@H](CCC(N)=O)NC(=O)[C@@H](NC(=O)[C@H](C)NC(=O)[C@@H]1CSSC[C@H](NC(=O)[C@@H](N)CCCNC(=N)N)C(=O)N[C@@H](CC(N)=O)C(=O)N[C@@H]([C@@H](C)O)C(=O)N[C@@H](C)C(=O)N[C@@H]([C@@H](C)O)C(=O)N1)[C@@H](C)O)C(=O)N[C@@H](CC(C)C)C(=O)N1CCC[C@H]1C(=O)N1CCC[C@H]1C(=O)N[C@H](C(=O)N[C@@H](CC(N)=O)C(=O)N[C@H](C(=O)NCC(=O)N[C@@H](CO)C(=O)N[C@@H](CC(N)=O)C(=O)N[C@H](C(=O)N1CCC[C@H]1C(N)=O)[C@@H](C)O)C(C)C)[C@@H](C)O` [PD048] (H-RCNTATCATQRLADFLRHSSNNLK([γGlu-C20 diacid])PILPPTNVGSNTP-NH2; disulfide 2-7 (inferred); N-terminus assumed), the Dissolution property entry was “Clear”, the Freeze storage property result is reported as “Clear” and the Freeze storage yield was found to be 102.16%.

Turning to “PD151: KCNTATCATQRLADFLRHSSNNLKPILPPTNVGSNT-trans-Hyp-NH2; N-terminal, 1K-ϵ; γGlu + C16 diacid ({C16 diacid-γGlu}-K([γGlu-C16 diacid])CNTATCATQRLADFLRHSSNNLKPILPPTNVGSNT-{trans‑Hyp-NH2}; disulfide 2-7 (inferred))”, the Dissolution property entry was “Clear”, the Freeze storage property entry was “Clear” and the Freeze storage yield worked out at 101.88%.

On to `CC[C@H](C)[C@H](NC(=O)[C@@H]1CCCN1C(=O)[C@H](CCCCNC(=O)CC[C@H](NC(=O)CCCCCCCCCCCCCCCCCCC(=O)O)C(=O)O)NC(=O)[C@H](CC(C)C)NC(=O)[C@H](CC(N)=O)NC(=O)[C@H](CC(N)=O)NC(=O)[C@H](CO)NC(=O)[C@H](CO)NC(=O)[C@H](Cc1c[nH]cn1)NC(=O)[C@H](CCCNC(=N)N)NC(=O)[C@H](CC(C)C)NC(=O)[C@H](Cc1ccccc1)NC(=O)[C@H](CC(=O)O)NC(=O)[C@H](C)NC(=O)[C@H](CC(C)C)NC(=O)[C@H](CCCNC(=N)N)NC(=O)[C@H](CCC(N)=O)NC(=O)[C@@H](NC(=O)[C@H](C)NC(=O)[C@@H]1CSSC[C@H](NC(=O)[C@@H](N)CCCNC(=N)N)C(=O)N[C@@H](CC(N)=O)C(=O)N[C@@H]([C@@H](C)O)C(=O)N[C@@H](C)C(=O)N[C@@H]([C@@H](C)O)C(=O)N1)[C@@H](C)O)C(=O)N[C@@H](CC(C)C)C(=O)N1CCC[C@H]1C(=O)N1CCC[C@H]1C(=O)N[C@H](C(=O)N[C@@H](CC(N)=O)C(=O)N[C@H](C(=O)NCC(=O)N[C@@H](CO)C(=O)N[C@@H](CC(N)=O)C(=O)N[C@H](C(=O)N1CCC[C@H]1C(N)=O)[C@@H](C)O)C(C)C)[C@@H](C)O` [PD042] (H-RCNTATCATQRLADFLRHSSNNLK([γGlu-C20 diacid])PILPPTNVGSNTP-NH2; disulfide 2-7 (inferred); N-terminus assumed), for which the Dissolution property entry is on record as “Clear”, the Freeze storage property result is “Clear” and the Freeze storage yield was determined as 95.19%.

Consider `CC[C@H](C)[C@H](NC(=O)[C@@H]1CCCN1C(=O)[C@H](CCCCNC(=O)CC[C@H](NC(=O)CCCCCCCCCCCCCCCCCCC(=O)O)C(=O)O)NC(=O)[C@H](CC(C)C)NC(=O)[C@H](CC(N)=O)NC(=O)[C@H](CC(N)=O)NC(=O)[C@H](CO)NC(=O)[C@H](CO)NC(=O)[C@H](Cc1c[nH]cn1)NC(=O)[C@H](CCCNC(=N)N)NC(=O)[C@H](CC(C)C)NC(=O)[C@H](Cc1ccccc1)NC(=O)[C@H](CCC(=O)O)NC(=O)[C@H](C)NC(=O)[C@H](CC(C)C)NC(=O)[C@H](CCCNC(=N)N)NC(=O)[C@H](CCC(N)=O)NC(=O)[C@@H](NC(=O)[C@H](C)NC(=O)[C@@H]1CSSC[C@H](NC(=O)[C@@H](N)CCCNC(=N)N)C(=O)N[C@@H](CC(N)=O)C(=O)N[C@@H]([C@@H](C)O)C(=O)N[C@@H](C)C(=O)N[C@@H]([C@@H](C)O)C(=O)N1)[C@@H](C)O)C(=O)N[C@@H](CC(C)C)C(=O)N1CCC[C@H]1C(=O)N1CCC[C@H]1C(=O)N[C@H](C(=O)N[C@@H](CC(N)=O)C(=O)N[C@H](C(=O)NCC(=O)N[C@@H](CO)C(=O)N[C@@H](CC(N)=O)C(=O)N[C@H](C(=O)N1CC[C@@H](N)[C@H]1C(N)=O)[C@@H](C)O)C(C)C)[C@@H](C)O` [PD061] (H-RCNTATCATQRLAEFLRHSSNNLK([γGlu-C20 diacid])PILPPTNVGSNT[X1]-NH2; disulfide 2-7; N-terminus assumed), for which the Dissolution property result is recorded as “Clear”, the Freeze storage property result is recorded as “Clear” and the Freeze storage yield came to 100.32%.

With “PD152: KCNTATCATQRLADFLRHSSNNLKPILPPTNVGSNT-trans-Hyp-NH2; N-terminal, 1K-ϵ; γGlu + C18 diacid ({C18 diacid-γGlu}-K([γGlu-C18 diacid])CNTATCATQRLADFLRHSSNNLKPILPPTNVGSNT-{trans‑Hyp-NH2}; disulfide 2-7 (inferred))”, the Dissolution property entry is given as “Clear”, the Freeze storage property entry is “Clear” and the Freeze storage yield is given as 97.96%.

In the case of “PD149: KCNTATCATQRLADFLRHSSNNLKPILPPTNVGSNT-trans-Hyp-NH2; N-terminal, 1K-ϵ; γGlu + C12 diacid ({C12 diacid-γGlu}-K([γGlu-C12 diacid])CNTATCATQRLADFLRHSSNNLKPILPPTNVGSNT-{trans‑Hyp-NH2}; disulfide 2-7 (inferred))”, the Dissolution property entry is listed as “Clear”, the Freeze storage property result is given as “Clear” and the Freeze storage yield worked out at 99.99%.

“PD148: KCNTATCATQRLADFLRHSSNNLKPILPPTNVGSNT-trans-Hyp-NH2; N-terminal, 1K-ϵ; γGlu + C10 diacid ({HOOC(CH2)8CO-γGlu}-K([γGlu-HOOC(CH2)8CO])CNTATCATQRLADFLRHSSNNLKPILPPTNVGSNT-{trans‑Hyp-NH2}; disulfide 2-7 (inferred))”: the Dissolution property entry is given as “Clear”, the Freeze storage property result is reported as “Clear” and the Freeze storage yield is on record as 103.34%.
